The results in this text go back to patent US20230212587A1, “Mutant Hydroxyphenylpyruvate Dioxygenase Polypeptide, Encoding Gene Thereof and Use Therefor” (Beijing Dabeinong Biotechnology Co., Ltd., priority 2019, published 2023).

Holding throughout (type): in vivo
Assay [1] relates to soybean T1 plants. Briefly: Tolerance of transgenic soybean T1 plants to mesotrione. As to conditions: mesotrione 210 and 420 g ai/ha, 7 DAT, compared to control vector and wild-type. From the text:
(§1) The Arabidopsisthaliana T1 plants into which the AsHPPDm-F372A-02 nucleotide sequence was introduced, Arabidopsis thaliana T1 plants into which the AsHPPD-02 nucleotide sequence was introduced and wild-type Arabidopsisthaliana plants (18 days after sowing) were sprayed with topramezone at four different concentrations, i.e., 25 g ai/ha (one-fold field concentration, 1×), 50 g ai/ha (two-fold field concentration, 2×), 100 g ai/ha (four-fold field concentration, 4×) and 0 g ai/ha (water, 0×) to determine the tolerance of Arabidopsisthaliana to the herbicide. The degree of damage caused by the herbicide was measured for each plant according to the proportion of bleached leaf area (the proportion of bleached leaf area=bleached leaf area/total leaf area×100%) 7 days after spraying (7 DAT): the case where there is basically no bleached phenotype is defined as grade 0, the case where the proportion of bleached leaf area is less than 50% is defined as grade 1,the case where the proportion of bleached leaf area is more than 50% is defined as grade 2, and the case where the proportion of bleached leaf area is 100% grade is defined as grade 3.
(§2) In order to further verify the tolerance effect of HPPD (F372A) on other HPPD inhibitors, the soybean T1 plants into which the AsHPPDm-F372A-02 nucleotide sequence was introduced, soybean T1 plants into which the ZmHPPDm-F372A-02 nucleotide sequence was introduced, soybean T1 plants into which the PfHPPDm-F372A-02 nucleotide sequence was introduced, soybean T1 plants into which the AsHPPDm-F372A-A110 nucleotide sequence was introduced, soybean T1 plants into which the control vector DBN11375NN was introduced in Example 8, and the wild-type soybean plants (V3-V4 at seedling stage) were sprayed as follows to detect the herbicide tolerance of each soybean plants, (1) 140 g ai/ha (2-fold field concentration, 2 ×) isoxaflutole; (2) 280 g ai/ha (4-fold field concentration, 4 ×) isoxaflutole; (3) 210 g ai/ha (2-fold field concentration, 2 ×) mesotrione; (4) 420 g ai/ha (4-fold field concentration, 4 ×) mesotrione. According to the method in point 6 of Example 1, after 7 days of spraying (7 DAT), the damage degree of each plant by the herbicide was statistically analyzed, and the scoring and resistance evaluation were carried out accordingly. […]

Assay [2] relates to Arabidopsis thaliana T1 plants. As to the kind of experiment: Topramezone tolerance of transgenic Arabidopsis thaliana T1 plants (pesticide damage grade by bleached leaf area, score, resistance evaluation). Particulars: for Classification and statistics of pesticide damage grade Grade 0 / Classification and statistics of pesticide damage grade Grade 1 / Classification and statistics of pesticide damage grade Grade 2 / Classification and statistics of pesticide damage grade Grade 3 / Scores / Resistance evaluation: HPPDs from different species, 7 DAT; for Classification and statistics of pesticide damage grade Grade 0 / Classification and statistics of pesticide damage grade Grade 1 / Classification and statistics of pesticide damage grade Grade 2 / Classification and statistics of pesticide damage grade Grade 3: number of plants (of 16) in this grade; for Scores: score for pesticide damage 0-100; for Grade 0 (number of plants) / Grade 1 (number of plants) / Grade 2 (number of plants) / Grade 3 (number of plants) / Resistance Grade / score: mutation combination, Table 8. The procedure, abridged:
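Herbicide tolerance was judged per plant on a bleaching scale (grade 0 no bleaching to grade 3 fully bleached) 7 DAT. Topramezone doses were 0, 25, 50 and 100 g ai/ha on 18-day-old T1 and wild-type plants.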

Assay [3] relates to soybean T1 plants. As to the kind of experiment: Tolerance of transgenic soybean T1 plants to isoxaflutole. Particulars: isoxaflutole 140 and 280 g ai/ha, 7 DAT, compared to control vector and wild-type.
Excerpt: as §1, §2

B1: PfHPPDm-F372A-02: Pseudomonas fluorescens HPPD mutant F372A, SEQ ID NO: 30 (protein)
chain: MADLYENPMGLMGFEFIEFASPTPGTLEPIFEIMGFTKVATHRSKNVHLYRQGEINLILNNEPNSIASYFAAEHGPSVCGMAFRVKDSQKAYNRALELGAQPIHIDTGPMELNLPAIKGIGGAPLYLIDRFGEGSSIYDIDFVYLEGVERNPVGAGLKVIDHLTHNVYRGRMVYWANFYEKLFNFREARYFDIKGEYTGLTSKAMSAPDGMIRIPLNEESSKGAGQIEEFLMQFNGEGIQHVAFLTDDLVKTWDALKKIGMRFMTAPPDTYYEMLEGRLPDHGEPVDQLQARGILLDGSSVEGDKRLLLQIASETLMGPVFFEFIQRKGDDGFGEGNFKALFESIERDQVRRGVLTAD
modifications: PfHPPDm-F372A Amino Acid Sequence
Regarding B1, the “tolerance to mesotrione, in words” value in assay [1] is reported as “different degrees of tolerance”. In assay [2] (topramezone 25 g ai/ha (1x)), the “Classification and statistics of pesticide damage grade Grade 0” value came to 16; the “Classification and statistics of pesticide damage grade Grade 1” value was determined as 0; the “Classification and statistics of pesticide damage grade Grade 2” value was 0; the “Classification and statistics of pesticide damage grade Grade 3” value was 0. Besides, in assay [2] (topramezone 25 g ai/ha (1x)), the Scores is recorded as 0 and the Resistance evaluation entry is given as “highly resistant (highly resistant plants (scores 0-15))”. Also, in assay [2] (topramezone 100 g ai/ha (4x)), the “Classification and statistics of pesticide damage grade Grade 0” value amounted to 12; the “Classification and statistics of pesticide damage grade Grade 1” value is 4; the “Classification and statistics of pesticide damage grade Grade 2” value was determined as 0; the “Classification and statistics of pesticide damage grade Grade 3” value was found to be 0. In assay [2] (topramezone 100 g ai/ha (4x)), the Scores was 8 and the Resistance evaluation result is given as “highly resistant (highly resistant plants (scores 0-15))”. In assay [2] (topramezone 25 g ai/ha), the “Grade 0 (number of plants)” value is 20, the “Grade 1 (number of plants)” value is 0, the “Grade 2 (number of plants)” value was found to be 0 and the “Grade 3 (number of plants)” value amounted to 0. In addition, in assay [2] (topramezone 25 g ai/ha), the “Resistance Grade” value is “Highly resistant” and the score amounted to 0. In assay [2] (topramezone 100 g ai/ha), the “Grade 0 (number of plants)” value is reported as 16, the “Grade 1 (number of plants)” value is 4, the “Grade 2 (number of plants)” value was 0 and the “Grade 3 (number of plants)” value was determined as 0. Besides, in assay [2] (topramezone 100 g ai/ha), the “Resistance Grade” value is given as “Highly resistant” and the score came to 7. For the same molecule, the “tolerance to isoxaflutole, in words” value in assay [3] is “different degrees of tolerance”.

B2: AsHPPDm-F372A-A110: Avena sativa HPPD with F372A and deletion of alanine at position 110, SEQ ID NO: 412 (protein)
chain: MPPTPATATGAAAAAVTPEHAARSFPRVVRVNPRSDRFPVLSFHHVELWCADAASAAGRFSFALGAPLAARSDLSTGNSAHASLLLRSGALAFLFTAPYAPPPQEAATAATASIPSFSADAARTFAAAHGLAVRSVGVRVADAAEAFRVSVAGGARPAFAPADLGHGFGLAEVELYGDVVLRFVSYPDETDLPFLPGFERVSSPGAVDYGLTRFDHVVGNVPEMAPVIDYMKGFLGFHEFAEFTAEDVGTTESGLNSVVLANNSEAVLLPLNEPVHGTKRRSQIQTYLEYHGGPGVQHIALASNDVLRTLREMRARTPMGGFEFMAPPQAKYYEGVRRIAGDVLSEEQIKECQELGVLVDRDDQGVLLQIATKPVGDRPTFFLEMIQRIGCMEKDEVGQEYQKGGCGGFGKGNFSELFKSIEDYEKSLEVKQSVVAQKS
modifications: AsHPPDm-F372A-A110 Amino Acid Sequence
As for B2, in assay [1], the “tolerance to mesotrione, in words” value is given as “different degrees of tolerance”. Besides, in assay [2] (topramezone 25 g ai/ha), the “Grade 0 (number of plants)” value was 20, the “Grade 1 (number of plants)” value is reported as 0, the “Grade 2 (number of plants)” value is 0 and the “Grade 3 (number of plants)” value is recorded as 0. In assay [2] (topramezone 25 g ai/ha), the “Resistance Grade” value is reported as “Highly resistant” and the score came out at 0. Moreover, in assay [2] (topramezone 100 g ai/ha), the “Grade 0 (number of plants)” value was determined as 20, the “Grade 1 (number of plants)” value came out at 0, the “Grade 2 (number of plants)” value stood at 0 and the “Grade 3 (number of plants)” value was 0. Also, in assay [2] (topramezone 100 g ai/ha), the “Resistance Grade” value is listed as “Highly resistant” and the score is reported as 0. Further, in assay [3], the “tolerance to isoxaflutole, in words” value is “different degrees of tolerance”.
